Measurements: PMC8873214, “RIOX1-demethylated cGAS regulates ionizing radiation-elicited DNA repair” (Bone Research, 2022)

Biological target: T1, purified K491me-bearing Flag-cGAS (mouse, UniProt Q8C6L5 1-507, monomethyl-lysine at K491)
T1 construct: cyclic GMP-AMP synthase (cGAS), mouse (K491 is the mouse numbering); also called K491me-bearing cGAS; purified Flag-cGAS protein methylated by His-SET7; source: bacterially purified, then methylated in vitro with purified His-SET7
Assay: pull-down; purified Flag-cGAS methylated in vitro by purified His-SET7, incubated with purified SGF29, then with biotin-PAR; streptavidin pulldown, immunoblot; binding of SGF29 read from the loss of PAR-bound cGAS
Conditions: both partners purified

T1 sequence (Q8C6L5 whole entry): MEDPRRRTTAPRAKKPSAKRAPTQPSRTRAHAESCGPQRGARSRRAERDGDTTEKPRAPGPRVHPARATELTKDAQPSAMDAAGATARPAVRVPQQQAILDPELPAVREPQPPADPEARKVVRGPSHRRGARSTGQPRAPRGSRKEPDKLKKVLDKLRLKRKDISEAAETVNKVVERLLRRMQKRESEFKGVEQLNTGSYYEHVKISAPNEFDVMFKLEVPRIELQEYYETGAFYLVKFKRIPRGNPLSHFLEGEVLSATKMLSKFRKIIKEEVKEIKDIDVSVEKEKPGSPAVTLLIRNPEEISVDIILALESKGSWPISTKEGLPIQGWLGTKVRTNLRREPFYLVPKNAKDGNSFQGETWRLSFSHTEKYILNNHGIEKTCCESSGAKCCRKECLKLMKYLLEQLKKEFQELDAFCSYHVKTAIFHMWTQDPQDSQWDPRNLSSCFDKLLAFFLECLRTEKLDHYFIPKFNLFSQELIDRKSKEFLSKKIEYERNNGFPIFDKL

B1: purified His-SGF29 protein (natural protein, mouse, UniProt Q9DA08 1-293, looked up)
chain: MALVSADSRIAELLTELHQLIKQTQEERSRSEHNLVNIQKTHERMQTENKISPYYRTKLRGLYTTAKTDAEAECNILRKALDKIAEIKSLLEERRIAAKIAGLYNDSEPPRKTMRRGVLMTLLQQSAMTLPLWIGKPGDKPPPLCGAIPASGDYVAKPGDKVAARVKAVEGDEQWILAEVVSYSHATNKYEVDDIDEEGKERHTLSRRRIIPLPQWKANPETDPEALFQKEQLVLALYPQTTCFYRALIHTPPQRPQDDYSVLFEDTSYADGYSPPLNVAQRYVVACKEPKKK
notes: SAGA complex-associated factor 29 (SGF29); mouse and human SGF29 were cloned; also called purified WT SGF29 protein; source: E. coli BL21(DE3), purified
B1: binds.
